# In patent US20170137467A1 (CHROMOTEK, published 2017):
# Square brackets hold non-standard residues; d marks the D form. GABA = NCCCC(=O)O
# T1: BC2T A6C(Abu) (SMILES …)
# T1 construct: positional scanning library member
# T1 peptide: Ac-PDRKA[GABA]VSHWQQ-NH2
# T2: BC2T D2S
# T2 construct: positional scanning library member
# T2 peptide: Ac-PSRKAAVSHWQQ-NH2
# T3: BC2T P1D
# T3 construct: positional scanning library member
# T3 peptide: Ac-DDRKAAVSHWQQ-NH2
# T4: BC2T R3H
# T4 construct: positional scanning library member
# T4 peptide: Ac-PDHKAAVSHWQQ-NH2
# T5: BC2T D2Q
# T5 construct: positional scanning library member
# T5 peptide: Ac-PQRKAAVSHWQQ-NH2
# T6: BC2T D2H
# T6 construct: positional scanning library member
# T6 peptide: Ac-PHRKAAVSHWQQ-NH2
# T7: BC2T R3F
# T7 construct: positional scanning library member
# T7 peptide: Ac-PDFKAAVSHWQQ-NH2
# T8: BC2T K4F
# T8 construct: positional scanning library member
# T8 peptide: Ac-PDRFAAVSHWQQ-NH2
# T9: BC2T V7N
# T9 construct: positional scanning library member
# T9 peptide: Ac-PDRKAANSHWQQ-NH2
# T10: BC2T D2C(Abu) (SMILES …)
# T10 construct: positional scanning library member
# T10 peptide: Ac-P[GABA]RKAAVSHWQQ-NH2
# T11: BC2T A5Y
# T11 construct: positional scanning library member
# T11 peptide: Ac-PDRKYAVSHWQQ-NH2
# T12: BC2T K4H
# T12 construct: positional scanning library member
# T12 peptide: Ac-PDRHAAVSHWQQ-NH2
# T13: BC2T P1N
# T13 construct: positional scanning library member
# T13 peptide: Ac-NDRKAAVSHWQQ-NH2
# T14: BC2T K4Q
# T14 construct: positional scanning library member
# T14 peptide: Ac-PDRQAAVSHWQQ-NH2
# T15: BC2T R3P
# T15 construct: positional scanning library member
# T15 peptide: Ac-PDPKAAVSHWQQ-NH2
# T16: BC2T R3C(Abu) (SMILES …)
# T16 construct: positional scanning library member
# T16 peptide: Ac-PD[GABA]KAAVSHWQQ-NH2
# T17: BC2T R3T
# T17 construct: positional scanning library member
# T17 peptide: Ac-PDTKAAVSHWQQ-NH2
# T18: BC2T V7Q
# T18 construct: positional scanning library member
# T18 peptide: Ac-PDRKAAQSHWQQ-NH2
# T19: BC2T V7K
# T19 construct: positional scanning library member
# T19 peptide: Ac-PDRKAAKSHWQQ-NH2
# T20: BC2T Q12D
# T20 construct: positional scanning library member
# T20 peptide: Ac-PDRKAAVSHWQD-NH2
# T21: BC2T Q11D
# T21 construct: positional scanning library member
# T21 peptide: Ac-PDRKAAVSHWDQ-NH2
# Legend:
# Assay in all cases: positional peptide library pulldown on immobilised Nb, LC-MS of supernatant; signal ratio to control GFP-Nb (1 = not captured, near 0 = captured)
# BC2T A6C(Abu) = biological target: T1, BC2T A6C(Abu)
# Procedure, shortened: (§1)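 Unbound peptide left in supernatant after 1 h pulldown in PBS/0.01% CHAPS measured by reversed-phase LC-MS (8–30% eluent B gradient, 20 min).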
# BC2T D2S = biological target: T2, BC2T D2S
# Procedure, shortened: as §1
# BC2T P1D = biological target: T3, BC2T P1D
# Procedure, shortened: as §1
# BC2T R3H = biological target: T4, BC2T R3H
# Procedure, shortened: as §1
# BC2T D2Q = biological target: T5, BC2T D2Q
# Procedure, shortened: as §1
# BC2T D2H = biological target: T6, BC2T D2H
# Procedure, shortened: as §1
# BC2T R3F = biological target: T7, BC2T R3F
# Procedure, shortened: as §1
# BC2T K4F = biological target: T8, BC2T K4F
# Procedure, shortened: as §1
# BC2T V7N = biological target: T9, BC2T V7N
# Procedure, shortened: as §1
# BC2T D2C(Abu) = biological target: T10, BC2T D2C(Abu)
# Procedure, shortened: as §1
# BC2T A5Y = biological target: T11, BC2T A5Y
# Procedure, shortened: as §1
# BC2T K4H = biological target: T12, BC2T K4H
# Procedure, shortened: as §1
# BC2T P1N = biological target: T13, BC2T P1N
# Procedure, shortened: as §1
# BC2T K4Q = biological target: T14, BC2T K4Q
# Procedure, shortened: as §1
# BC2T R3P = biological target: T15, BC2T R3P
# Procedure, shortened: as §1
# BC2T R3C(Abu) = biological target: T16, BC2T R3C(Abu)
# Procedure, shortened: as §1
# BC2T R3T = biological target: T17, BC2T R3T
# Procedure, shortened: as §1
# BC2T V7Q = biological target: T18, BC2T V7Q
# Procedure, shortened: as §1
# BC2T V7K = biological target: T19, BC2T V7K
# Procedure, shortened: as §1
# BC2T Q12D = biological target: T20, BC2T Q12D
# Procedure, shortened: as §1
# BC2T Q11D = biological target: T21, BC2T Q11D
# Procedure, shortened: as §1
binder,measurement,setting,value
"BC2-NbR106E (VHH, headlock mutant of BC2-Nb; immobilised on beads in this assay) VHH: QVQLVESGGGLVQPGGSLTLSCTASGFTLDHYDIGWFRQAPGKEREGVSCINNSDDDTYYADSVKGRFTIFMDNAKDTVYLQMNSLKPEDTAIYYCAEARGCKRGEYEYDFWGQGTQVTVSS",ratio,BC2T A6C(Abu),0.1
same,ratio,BC2T D2S,0.2
same,ratio,BC2T P1D,0.8
same,ratio,BC2T R3H,0.5
same,ratio,BC2T D2Q,0.1
same,ratio,BC2T D2H,0.1
same,ratio,BC2T R3F,1
same,ratio,BC2T K4F,0.6
same,ratio,BC2T V7N,0.4
same,ratio,BC2T D2C(Abu),0.2
same,ratio,BC2T A5Y,0.1
same,ratio,BC2T K4H,0.2
same,ratio,BC2T P1N,0.7
same,ratio,BC2T K4Q,0.2
same,ratio,BC2T R3P,1
same,ratio,BC2T R3C(Abu),0.9
same,ratio,BC2T R3T,0.6
same,ratio,BC2T V7Q,0.4
same,ratio,BC2T V7K,0.1
"BC2 nanobody (VHH, immobilised on beads in this assay; also called BC2-Nb; BC2 nanotrap (immobilised)) VHH: QVQLVESGGGLVQPGGSLTLSCTASGFTLDHYDIGWFRQAPGKEREGVSCINNSDDDTYYADSVKGRFTIFMDNAKDTVYLQMNSLKPEDTAIYYCAEARGCKRGRYEYDFWGQGTQVTVSS",ratio,BC2T Q12D,0.6
same,ratio,BC2T Q11D,0.2
